Drawing on paper PMC8195445, this text covers percent of the binding to Ca2+-CaM-F and percent of the binding of IQ3R to Ca2+-CaM-F for two substances.

The target in test [1] is GST-calmodulin N-half (CaM-N, residues 1–74) (UniProt P0DP23). Kind of test: pull-down.
Test [2] deals with GST-calmodulin C-half (CaM-C, residues 75–148) (UniProt P0DP23). Nature of the test: pull-down.

“IQGAP1 wild-type IQ domain (amino acids 717–916) (from UniProt P46940 717-916) (domain or fragment)”: in test [1], the percent of the binding to Ca2+-CaM-F was 32%.

Take “IQGAP1 IQ domain (amino acids 717–916) IQ3R mutant (from UniProt P46940 717-916) (domain or fragment)”: the percent of the binding of IQ3R to Ca2+-CaM-F is 15% in test [2] and 27% in test [1].
